Consider two molecules from patent publication US20060030527A1 (TRANSTECH PHARMA, published 2006).

The target of one experiment is T1, BSA (UniProt P02769 25-607).
T1 construct: also called BSA coating alone; BSA+wash
The experiment can be described thus: ELISA on coated Maxisorb plates, absorbance at 405 nm. On the procedure: (§1) Known RAGE ligands were coated onto the surface of Maxisorb plates at a concentration of 5 micrograms per well. Plates were incubated at 4° C. overnight. Following ligand incubation, plates were aspirated and a blocking buffer of 1% BSA in 50 mM imidizole buffer (pH 7.2) was added to the plates for 1 hour at room temperature. The plates were then aspirated and/or washed with wash buffer (20 mM Imidizole, 150 mM NaCl, 0.05% Tween-20, 5 mM CaCl₂ and 5 mM MgCl₂, pH 7.2). […] The fusion protein was added at increasing dilutions of the initial sample. The RAGE fusion protein was allowed to incubate with the immobilized ligand at 37° C. for one hour after which the plate was washed and assayed for binding of the fusion protein. Binding was detected by the addition of an immunodetection complex containing a monoclonal mouse anti-human IgG1 diluted 1:11,000 to a final assay concentration (FAC) of 21 ng/100 μL, a biotinylated goat anti-mouse IgG diluted 1:500, to a FAC of […], and an avidin-linked alkaline phosphatase. […] Binding of the complex to the immobilized fusion protein was quantified by measuring conversion of PNPP to para-nitrophenol (PNP) which was measured spectrophotometrically at 405 nm.
A general note: An ELISA detects its analyte on a solid surface through an enzyme-linked reagent.

For experiment [1], the target named is T2, Amyloid Beta (1-40) from Biosource (UniProt P05067 672-711).
T2 construct: domain: Amyloid Beta (1-40); Immobilised on Maxisorb plates; amyloid beta 1-40 is a fragment of it; also called Abeta; A-beta
T2 sequence (P05067 672-711 limits assumed): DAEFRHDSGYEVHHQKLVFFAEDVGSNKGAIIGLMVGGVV
The experiment is described as follows: ELISA, immobilised ligand, dilutions of a 1.082 mg/mL solution. On the procedure: as §1

Experiment [2] addresses T2, Amyloid Beta (1-40) from Biosource. The experiment can be described thus: ELISA, ligand coated on Maxisorb plate, fusion protein detected through anti-human IgG1 complex. How it is done:
as §1

T1 sequence (P02769 25-607 limits assumed): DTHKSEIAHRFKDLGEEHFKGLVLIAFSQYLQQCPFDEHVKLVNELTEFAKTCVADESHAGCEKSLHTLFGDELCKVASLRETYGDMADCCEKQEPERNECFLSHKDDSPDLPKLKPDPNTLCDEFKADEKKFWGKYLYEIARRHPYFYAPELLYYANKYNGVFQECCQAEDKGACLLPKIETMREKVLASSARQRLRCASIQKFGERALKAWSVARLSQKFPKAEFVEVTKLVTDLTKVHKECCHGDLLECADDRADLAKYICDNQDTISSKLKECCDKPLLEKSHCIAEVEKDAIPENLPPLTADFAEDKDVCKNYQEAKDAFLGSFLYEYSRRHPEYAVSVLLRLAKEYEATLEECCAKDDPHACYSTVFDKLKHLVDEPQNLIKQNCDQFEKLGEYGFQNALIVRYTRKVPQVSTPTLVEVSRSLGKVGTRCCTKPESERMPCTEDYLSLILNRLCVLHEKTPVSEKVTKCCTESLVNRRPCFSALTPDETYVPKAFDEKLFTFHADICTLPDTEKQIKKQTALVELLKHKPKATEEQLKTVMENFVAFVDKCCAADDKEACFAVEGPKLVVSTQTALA

B1: RAGE fusion protein TTP-3000 (Fc fusion)
chain: AQNITARIGEPLVLKCKGAPKKPPQRLEWKLNTGRTEAWKVLSPQGGGPWDSVARVLPNGSLFLPAVGIQDEGIFRCQAMNRNGKETKSNYRVRVYQIPGKPEIVDSASELTAGPSVFLFPPKPKDTLMISRTPEVTCVVVDVSHEDPEVKFNWYVDGVEVHNAKTKPREEQYNSTYRVVSVLTVLHQDWLNGKEYKCKVSNKALPAPIEKTISKAKGQPREPQVYTLPPSRDELTKNQVSLTCLVKGFYPSDIAVEWESNGQPENNYKTTPPVLDSDGSFFLYSKLTVDKSRWQQGNVFSCSVMHEALHNHYTQKSLSLSPGK
notes: also called TT3; three domain RAGE fusion protein
Regarding B1, the binding result is “no binding” with BSA and “binds” in experiment [1].

B2: RAGE fusion protein TTP-4000 (Fc fusion)
chain: AQNITARIGEPLVLKCKGAPKKPPQRLEWKLNTGRTEAWKVLSPQGGGPWDSVARVLPNGSLFLPAVGIQDEGIFRCQAMNRNGKETKSNYRVRVYQIPGKPEIVDSASELTAGVPNKVGTCVSEGSYPAGTLSWHLDGKPLVPNEKGVSVKEQTRRHPETGLFTLQSELMVTPARGGDPRPTFSCSFSPGLPRHRALRTAPIQPRVWEPVPLEEVQLVVEPEGGAVAPPSVFLFPPKPKDTLMISRTPEVTCVVVDVSHEDPEVKFNWYVDGVEVHNAKTKPREEQYNSTYRVVSVLTVLHQDWLNGKEYKCKVSNKALPAPIEKTISKAKGQPREPQVYTLPPSRDELTKNQVSLTCLVKGFYPSDIAVEWESNGQPENNYKTTPPVLDSDGSFFLYSKLTVDKSRWQQGNVFSCSVMHEALHNHYTQKSLSLSPGK
notes: No immunoglobulin hinge; also called TT4; four domain RAGE fusion protein
For the molecule B2, the binding result is “no binding” with BSA and “binds” in experiment [2].
